B1: N/Z site in luciferase reporter promoter (dsDNA)
DNA 1: AAGGGTTCAGGCGTGGGCG
DNA 2: CGCCCACGCCTGAACCCTT
B2: NZ site (dsDNA)
DNA 1: TCTGCAAGGGTTCAGCGTGGGCGGTAAG
DNA 2: CTTACCGCCCACGCTGAACCCTTGCAGA
B3: N/Z site (dsDNA)
DNA 1: TCTGCAAGGGTTCAGGCGTGGGCGGTAAG
DNA 2: CTTACCGCCCACGCCTGAACCCTTGCAGA
B4: N//Z site in luciferase reporter promoter (dsDNA)
DNA 1: AAGGGTTCAGTGCGTGGGCG
DNA 2: CGCCCACGCACTGAACCCTT
B5: Z site in luciferase reporter promoter (dsDNA)
DNA 1: GCGTGGGCG
DNA 2: CGCCCACGC
B6: N//Z site (dsDNA)
DNA 1: TCTGCAAGGGTTCAGTGCGTGGGCGGTAAG
DNA 2: CTTACCGCCCACGCACTGAACCCTTGCAGA

Key:
[1] = target: T1, Zif268 (three-finger peptide) (UniProt P08046 P08046:333-421); assay: cell_activity; 293 cells
[2] = target: T1, Zif268 (three-finger peptide); assay: EMSA; pH 7.0, 100 mM NaCl, 5 mM MgCl2, Zn, room temp
[3] = target: T1, Zif268 (three-finger peptide); assay: EMSA; room temp

Binder	activity [1]	Kd [3]	further results
B1	8.9 fold repression	–	–
B2	–	–	Kd [2]: 0.012 nM
B3	–	0.014 nM	–
B4	15 fold repression	–	–
B5	13 fold repression	–	–
B6	–	0.014 nM	–

Source: patent US6903185
